Test results published in US12427188B2, “Pyocyanine demethylases and related phenazine degrading agents compositions, methods and systems for interfering with viability of bacteria” (priority 2020, dated 2025).

Tests used:
[1] = Continuous spectrophotometric PYO demethylation assay (specific activity and kinetics of PodA); assay type: biochemical; details: for catalytic efficiency compared with PodA^WT: Michaelis-Menten kinetics, 3 μM protein
Experimental: Specific activity and kinetics of PodA. To determine specific activity and kinetic parameters of PodA for PYO, a continuous spectrophotometric assay monitoring the absorbance of PYO (690 nm) was utilized. Briefly, assays were performed at 25° C. in 100 μL reaction volumes in 96-well plates and reactions were monitored at 690 nm over 10 min. Reaction mixtures contained Phosphate buffer (50 mM, pH 6.0), ethylene glycol (1%, v/v), protein (3 μM) and substrate (for specific activity, 100 μM, for kinetics, varying). Data were acquired using the SpectraMax® M3 Microplate Reader (Molecular Devices) using the Soft Max Pro software every 10 s over 10 min. Path lengths for each well were calculated using Soft Max Pro endpoint readings and slopes were corrected for path lengths of 1 cm.
Specific activity was calculated from the slope of the linear range of (ΔOD690 min^−1) using Beer's Law (A=εcl) with a path length of 1 cm and the molar extinction coefficient of PYO (4,130 M^−1 cm^−1). Equation was solved for c, giving specific activity in nmol min^−1 mg^−1 of PodA. For kinetic parameters, graphs of initial velocity (μM s^−1) versus substrate concentration (μM) were plotted using Prism v8 (GraphPad). The Michaelis-Menten kinetics model was used to determine Km and Vmax. The turnover number (kcat) was determined using the following equation: Vmax=kcat[E], where [E] was the concentration of PodA added. All spectrophotometric assays mentioned above were completed thrice, each in technical triplicate with a representative data set shown. Error bars represent standard deviation as calculated by Prism v8 (GraphPad). Standard deviation for kcat and Kcat KM^−1 was calculated using standard formulas for propagation of error.

[2] = Protein yield of PodA variants purified from inclusion bodies of overexpression culture; details: purified from inclusion bodies, per L of E. coli overexpression culture
Experimental: Protein overproduction and purification of soluble and inclusion body fractions. Plasmids coding for proteins of interest were transformed into E. coli BL21 […]. […]. Cultures were grown at 37° C. with shaking to an optical density of 0.4 (OD600 nm) and plasmid expression was induced with IPTG (50 μM) and shaken overnight at 16° C. Cells were harvested by centrifugation at 5,000×g for 10 min in a Beckman Coulter Avanti J-20 XOI refrigerated centrifuge using a JLA-8.1000 rotor at 4° C. Cell pellets were stored at −80° C. until used.
For purification of PodA from inclusion bodies, the pellets remaining following lysis and centrifugation at 40,000×g were resuspended in 20 mL of detergent buffer [50 mM HEPES (pH 7.5) and 1% Triton-X (v/v)] using a Bio-gen PRO200 cell homogenizer (PRO Scientific). Sample was spun for 15 min at 40,000×g at 4° C. in a Beckman Coulter Avanti centrifuge with a JA-25.50 rotor. Supernatant was discarded and the remaining cell pellet was resuspended in 5 mL of buffer [50 mM HEPES (pH 7.5), 500 mM NaCl] using a cell homogenizer, supplemented with lysozyme (200 μg mL^−1), and incubated for 10 min. Volume was increased to 20 mL with HEPES (50 mM, pH 7) and sample was spun for 40,000×g at 4° C. for 15 min. Supernatant was discarded and pellet was homogenized in 10 mL of denaturing buffer 50 mM HEPES (pH 7.5), 500 mM NaCl, and 8M urea) and incubating rocking overnight. The sample was spun at for 40,000×g at 25° C. for 30 min and supernatant was incubated with 1 mL HisPur Ni-NTA resin (Thermo Fisher Scientific) on a rocking platform for 10 min. Beads were allowed to settle without shaking, supernatant was discarded, and resin was pipetted into glass gravity columns. Resin was washed with 15 mL of denaturing buffer, followed by an elution with denaturing buffer supplemented with imidazole (500 mM). Fractions were analyzed by SDS-PAGE and those containing protein were combined into SnakeSkin 3.5 K MWCO dialysis tubing (Thermo Fisher Scientific). Urea was slowly dialyzed out in HEPES (50 mM, pH 7.5) and NaCl (500 mM) by lowing urea concentrations by 1 M increments. Each step was dialyzed at RT for 30 min. Protein was dialyzed in HEPES (50 mM, pH 7.5), NaCl (500 mM), and imidazole (20 mM) overnight at 4° C. The following day, protein was cleaved for 3 h at 25° C. with TEV protease (1:50 mg:mg ratio of TEV to PodA). The sample was applied to a HisPur gravity column and cleaved protein in the flow thru was confirmed by SDS-PAGE. Cleaved PodA protein was then dialyzed for storage for 3 h at 4° C. in HEPES (50 mM pH 7.5), NaCl (250 mM) and finally in HEPES (50 mM, pH 7.5), NaCl (100 mM), and glycerol (20%, v/v). Protein concentration was established on a NanoDrop™ using the extinction coefficient and MW of each protein. Protein was drop frozen in LN2 and stored at −80° C. until use.

[3] = pH 6, 1% ethylene glycol, PodA 3 μM, substrate PYO

B1: WT PodA30-162: Truncated wild-type pyocyanin demethylase PodA, residues 30-162, SEQ ID NO: 2 (protein)
chain: MDGRGGRSTTEPVTMTLDVKNDQVAKHDFGKPGMDVGDMDIFSDILSVDGKQVGYDGGACFFTNVTPDNPMTYCELTIHLDAGEIFARSLTPHTLAPFTMAITGGTGEYANSKGELTVSGVATPDEKYELKLTKAENLYFQ
modifications: Sybthetic Polypeptide
[1]; buffers pH 5.5-10.0, PodA 3 μM, PYO 100 μM
  pH of optimal activity: 6
[1]; cystic fibrosis sputum range, 66 mM Na+, 15 mM K+
  Effect of salts (NaCl and KCl) on activity: did not inhibit or enhance
[1]; glycerol 5 to 20%
  Effect of higher glycerol concentrations on the activity increase: reversed this activity increase
[1]; [3]
  Km: 372 µM
  catalytic efficiency: 4.73±0.24×10^2 M^−1 s^−1
  kcat: 0.176 ± 0.003 s⁻¹
[1]; pH 6, PodA 3 μM, PYO 100 μM
  Effect of slight increase in viscosity (ethylene glycol or glycerol 1% v/v) on activity: enhanced
[1]; protein from soluble fraction
  catalytic efficiency: 1.05±0.093×10^2 M^−1 s^−1
[1]; protein purified from inclusion bodies, denatured and refolded
  catalytic efficiency: 1.14±0.25× 10^2 M^−1 s^−1

B2: PodA1030-162: PodA10 of SEQ ID NO: 2: A24N, I44T, A58V, M70V, A100T (protein)
chain: MDGRGGRSTTEPVTMTLDVKNDQVNKHDFGKPGMDVGDMDIFSDTLSVDGKQVGYDGGVCFFTNVTPDNPVTYCELTIHLDAGEIFARSLTPHTLAPFTMTITGGTGEYANSKGELTVSGVATPDEKYELKLTKAENLYFQ
modifications: Sybthetic Polypeptide
[1]
  catalytic efficiency compared with PodA^WT: slight increase in efficiency

B3: PodA830-162: PodA8 of SEQ ID NO: 2: A24N, I44R, A58V, T62V, A100V (protein)
chain: MDGRGGRSTTEPVTMTLDVKNDQVNKHDFGKPGMDVGDMDIFSDRLSVDGKQVGYDGGVCFFVNVTPDNPMTYCELTIHLDAGEIFARSLTPHTLAPFTMVITGGTGEYANSKGELTVSGVATPDEKYELKLTKAENLYFQ
modifications: Sybthetic Polypeptide
[1]
  catalytic efficiency compared with PodA^WT: no change

B4: PodA^D72A: PodA active site variant D72A (protein)
chain: MTGKTKPAIIGGVAITALAAAGLGVWLFTDGRGGRSTTEPVTMTLDVKNDQVAKHDFGKPGMDVGDMDIFSAILSVDGKQVGYDGGACFFTNVTPDNPMTYCELTIHLDAGEIFARSLTPHTLAPFTMAITGGTGEYANSKGELTVSGVATPDEKYELKLTK
[1]; PodA 3 μM, PYO varying
  Activity of active site variants compared to controls: did not have measurable activity

B5: PodA^H121K: PodA active site variant H121K (protein)
chain: MTGKTKPAIIGGVAITALAAAGLGVWLFTDGRGGRSTTEPVTMTLDVKNDQVAKHDFGKPGMDVGDMDIFSDILSVDGKQVGYDGGACFFTNVTPDNPMTYCELTIHLDAGEIFARSLTPKTLAPFTMAITGGTGEYANSKGELTVSGVATPDEKYELKLTK
[1]; PodA 3 μM, PYO varying
  Activity of active site variants compared to controls: did not have measurable activity

B6: PodA^Y156A: PodA active site variant Y156A (protein)
chain: MTGKTKPAIIGGVAITALAAAGLGVWLFTDGRGGRSTTEPVTMTLDVKNDQVAKHDFGKPGMDVGDMDIFSDILSVDGKQVGYDGGACFFTNVTPDNPMTYCELTIHLDAGEIFARSLTPHTLAPFTMAITGGTGEYANSKGELTVSGVATPDEKAELKLTK
[1]; PodA 3 μM, PYO varying
  Activity of active site variants compared to controls: did not have measurable activity

B7: PodA^H121R: PodA active site variant H121R (protein)
chain: MTGKTKPAIIGGVAITALAAAGLGVWLFTDGRGGRSTTEPVTMTLDVKNDQVAKHDFGKPGMDVGDMDIFSDILSVDGKQVGYDGGACFFTNVTPDNPMTYCELTIHLDAGEIFARSLTPRTLAPFTMAITGGTGEYANSKGELTVSGVATPDEKYELKLTK
[1]; PodA 3 μM, PYO varying
  Activity of active site variants compared to controls: did not have measurable activity

B8: PodA^D68A: PodA variant inhibiting product release, D68A (protein)
chain: MTGKTKPAIIGGVAITALAAAGLGVWLFTDGRGGRSTTEPVTMTLDVKNDQVAKHDFGKPGMDVGDMAIFSDILSVDGKQVGYDGGACFFTNVTPDNPMTYCELTIHLDAGEIFARSLTPHTLAPFTMAITGGTGEYANSKGELTVSGVATPDEKYELKLTK
[1]; PodA 3 μM, PYO varying
  Michaelis-Menten behaviour: maintained similar Michaelis-Menten trends for concentrations of PYO under 100 μM, after which Vmax leveled off

B9: PodA^Y156F: PodA active site variant Y156F (protein)
chain: MTGKTKPAIIGGVAITALAAAGLGVWLFTDGRGGRSTTEPVTMTLDVKNDQVAKHDFGKPGMDVGDMDIFSDILSVDGKQVGYDGGACFFTNVTPDNPMTYCELTIHLDAGEIFARSLTPHTLAPFTMAITGGTGEYANSKGELTVSGVATPDEKFELKLTK
[1]; PodA 3 μM, PYO varying
  Activity of active site variants compared to controls: did not have measurable activity

B10: PodA^H121A: PodA active site variant H121A (protein)
chain: MTGKTKPAIIGGVAITALAAAGLGVWLFTDGRGGRSTTEPVTMTLDVKNDQVAKHDFGKPGMDVGDMDIFSDILSVDGKQVGYDGGACFFTNVTPDNPMTYCELTIHLDAGEIFARSLTPATLAPFTMAITGGTGEYANSKGELTVSGVATPDEKYELKLTK
[1]; PodA 3 μM, PYO varying
  Activity of active site variants compared to controls: did not have measurable activity

B11: PodA^E154A: PodA active site variant E154A, inactive (protein)
chain: MTGKTKPAIIGGVAITALAAAGLGVWLFTDGRGGRSTTEPVTMTLDVKNDQVAKHDFGKPGMDVGDMDIFSDILSVDGKQVGYDGGACFFTNVTPDNPMTYCELTIHLDAGEIFARSLTPHTLAPFTMAITGGTGEYANSKGELTVSGVATPDAKYELKLTK
[1]; PodA 3 μM, PYO varying
  Activity of active site variants compared to controls: did not have measurable activity

B12: PodA9: Designed PodA41-162 variant: I73K, A87V, T91V, A129V, K141T (protein)
chain: VTMTLDVKNDQVAKHDFGKPGMDVGDMDIFSDKLSVDGKQVGYDGGVCFFVNVTPDNPMTYCELTIHLDAGEIFARSLTPHTLAPFTMVITGGTGEYANSTGELTVSGVATPDEKYELKLTK
[2]
  Yield: 1.28 mg/L^−1

B13: PodA2: Designed PodA41-162 variant: I73T, A87V, T91V, M99V, A129V (protein)
chain: VTMTLDVKNDQVAKHDFGKPGMDVGDMDIFSDTLSVDGKQVGYDGGVCFFVNVTPDNPVTYCELTIHLDAGEIFARSLTPHTLAPFTMVITGGTGEYANSKGELTVSGVATPDEKYELKLTK
[2]
  Yield: 16.1 mg/L^−1
